What was measured:
[1] = molecular target: T1, recombinant human IL-15 (Prospec cat no. CYT230) (human, UniProt P40933 49-162); experiment: ELISA, plate-bound human IL-15; printed as BC50 (half-maximal binding concentration)
Method: (§1) Maxisorp plates were coated with recombinant human IL-15 (Prospec cat no. CYT230) or Rhesus macaque IL-15 (MyBiosource cat. no. MBS948894) at 100 ng/well in carbonate coating buffer for 2 hours at 37° C. Since published sequences of Rhesus macaque and Cynomolgus monkey IL-15 are identical, such recombinant IL-15 protein was referred to as Macaque Monkey IL-15. Tested human IL-15 recombinant protein has a sequence identical to that provided in SEQ ID NO: 1 but with an additional methionine at the N-terminal position as usually done for expressing recombinant proteins in E. Coli. Tested recombinant Macaque Monkey IL-15 was produced in yeast and has a sequence identical to that provided in SEQ ID NO: 4 but with an additional N-terminal His tag.
(§2) The plate was then blocked with 2% normal goat serum for 30 min at 37° C. and washed 6 times with PBS-Tween (0.05% Tween-20 in PBS, v/v). Test antibodies were added to the plate in triplicate at various dilutions in PBS-Tween and the plate was incubated with gentle rocking at room temperature for 2 hours. The plate was then washed 6 times with PBS-Tween and an appropriate dilution of goat anti-human IgG antibody (Millipore cat. no. AP309P) conjugated to horseradish peroxidase (HRP) was added to the plate and left rocking at room temperature for 1 hour. The plate was then washed 6 times with PBS-Tween and incubated with TMB substrate. The reaction was stopped by the addition of 1M H₂SO₄ and read at 450 nm. Dose response curves of absorbance versus concentration were plotted and analyzed to determine half-maximal binding concentrations (BC₅₀) using the Graphpad Prism software. BC₅₀ values expressed as molarity were extrapolated from concentration in ng/ml using a 150 kDa molecular weight value for all antibodies.

[2] = molecular target: T1, recombinant human IL-15 (Prospec cat …); experiment: ELISA, plate-bound recombinant human IL-15 (100 ng/well), HRP goat anti-human IgG, absorbance at 450 nm
Method: as §1
The plate was then blocked with 2% normal goat serum for 30 min at 37° C. and washed 6 times with PBS-Tween (0.05% Tween-20 in PBS, v/v). […] The reaction was stopped by the addition of 1M H₂SO₄ and read at 450 nm. Dose response curves of absorbance versus concentration were plotted and analyzed to determine half-maximal binding concentrations (BC₅₀) using the Graphpad Prism software. BC₅₀ values expressed as molarity were extrapolated from concentration in ng/ml using a 150 kDa molecular weight value for all antibodies.

[3] = molecular target: T2, recombinant Macaque Monkey IL-15 (MyBiosource cat. no. MBS948894) (Rhesus macaque / Cynomolgus monkey, UniProt P40221 49-162 (Chlorocebus aethiops entry)); experiment: ELISA, plate-bound Macaque Monkey IL-15; printed as BC50 (half-maximal binding concentration)
T2 construct: Produced in yeast; also called Rhesus macaque IL-15; recombinant monkey IL-15; not shown: additional N-terminal His tag
T2 sequence (P40221 49-162): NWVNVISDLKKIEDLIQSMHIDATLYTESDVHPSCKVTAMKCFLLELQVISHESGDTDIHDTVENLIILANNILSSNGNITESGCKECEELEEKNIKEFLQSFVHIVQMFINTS
Method: as §1, §2

[4] = molecular target: T3, recombinant human IL-15 (R&D systems cat. no. 247-IL) (human, UniProt P40933 49-162); experiment: cell-based or functional assay
T3 sequence (P40933 49-162 limits assumed): as the sequence (P40221 49-162) above, with H52L, T57A, D58S, I73S, I80V counted along it

[5] = molecular target: T4, human IL-15 (preparation not stated) (human, UniProt P40933 49-162, limits assumed); experiment: cell-based or functional assay
T4 sequence (P40933 49-162 limits assumed): as the sequence (P40221 49-162) above, with H52L, T57A, D58S, I73S, I80V counted along it

[6] = molecular target: recombinant human IL-2 (R&D Systems cat. no. 202-IL-010) (human, UniProt P60568 21-153); experiment: ELISA, plate-bound recombinant human IL-2 (100 ng/well), HRP goat anti-human IgG, absorbance at 450 nm
recombinant human IL-2 (R&D Systems cat. no. 202-IL-010), sequence (P60568 21-153 limits assumed): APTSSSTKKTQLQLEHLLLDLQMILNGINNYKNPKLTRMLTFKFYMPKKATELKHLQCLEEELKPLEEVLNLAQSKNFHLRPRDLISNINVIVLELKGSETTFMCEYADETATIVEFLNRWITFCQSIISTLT
Method: Maxisorp plates were coated with recombinant human IL-2 (R&D Systems cat. no. 202-IL-010) of SEQ ID NO: 38 at 100 ng/well in carbonate coating buffer for 2 hours at 37° C. The plate was then blocked with 2% normal goat serum for 30 min at 37° C. and washed 4 times with PBS-Tween (0.05% Tween-20 in PBS, v/v). Test antibodies or positive control biotinylated antibody (anti-IL-2 Novus Bio cat. no. NBP1-43491) were added to the plate in duplicate at 5 μg/ml in PBS-Tween and the plate was incubated with gentle rocking at room temperature for 2 hours. The plate was then washed 4 times with PBS-Tween and an appropriate dilution of goat anti-human IgG antibody (Millipore cat. no. AP309P) conjugated to horseradish peroxidase (HRP) for test antibodies, or streptavidin-HRP for positive control antibody, was added to the plate and left rocking at room temperature for 1 hour. The plate was then washed 4 times with PBS-Tween and incubated with TMB (3,3′,5,5′-tetramethylbenzidine) substrate. The reaction was stopped by the addition of 1 M H₂SO₄ and read at 450 nm.

[7] = molecular target: T3, recombinant human IL-15 (R&D systems …); experiment: cell-based or functional assay; remark: listed apart in the source
[8] = molecular target: T2, recombinant Macaque Monkey IL-15 …; experiment: cell-based or functional assay
[9] = molecular target: T5, recombinant mouse IL-15 (R&D Systems cat. no. 447-ML) (mouse, UniProt P48346 49-162); experiment: ELISA, plate-bound recombinant mouse IL-15 (100 ng/well), HRP goat anti-human IgG, absorbance at 450 nm
T5 sequence: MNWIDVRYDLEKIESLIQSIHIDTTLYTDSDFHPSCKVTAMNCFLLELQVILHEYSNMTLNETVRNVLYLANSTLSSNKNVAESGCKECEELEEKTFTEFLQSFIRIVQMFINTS
Method: (§3) Maxisorp plates were coated with recombinant mouse IL-15 (R&D Systems cat. no. 447-ML) or rat IL-15 (Sigma cat. no. SRP4172) at 100 ng/well in carbonate coating buffer for 2 hours at 37° C. Tested IL-15 recombinant proteins have a sequence identical to that provided in SEQ ID NO: 2 (mouse IL-15) and SEQ ID NO: 3 (rat IL-15) but with an additional methionine at the N-terminal position as usually done for expressing recombinant proteins in E. Coli.
(§4) The plate was then blocked with 2% normal goat serum for 30 min at 37° C. and washed 6 times with PBS-Tween (0.05% Tween-20 in PBS, v/v). Test antibodies were added to the plate in triplicate at various dilutions in PBS-Tween and the plate was incubated with gentle rocking at room temperature for 2 hours. As positive controls, rabbit-anti-mouse IL-15 (Acris cat. no. AP01124PU-S) or rabbit anti-rat IL-15 (Biovision cat. no. 5172) antibodies were tested at the same concentrations. The plate was then washed 6 times with PBS-Tween and an appropriate dilution of HRP-conjugated goat anti-human IgG antibody (Millipore cat. no. AP309P) for humanized antibodies, or goat-anti-rabbit IgG antibody (Sigma cat. no. A 4416) for the positive controls was added and the plate was left rocking at room temperature for 1 hour. The plate was then washed 6 times with PBS-Tween and incubated with TMB substrate. The reaction was stopped by the addition of 1M H₂SO₄ and read at 450 nm. Dose response curves of absorbance versus concentration were plotted using the Graphpad Prism software.

[10] = molecular target: T6, recombinant rat IL-15 (Sigma cat. no. SRP4172) (rat, UniProt P97604 49-162); experiment: ELISA, plate-bound recombinant rat IL-15 (100 ng/well), HRP goat anti-human IgG, absorbance at 450 nm
T6 sequence: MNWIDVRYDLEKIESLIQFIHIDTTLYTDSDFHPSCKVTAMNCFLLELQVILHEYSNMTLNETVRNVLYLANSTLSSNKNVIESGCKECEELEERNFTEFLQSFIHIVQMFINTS
Method: as §3, §4

[11] = molecular target: T1, recombinant human IL-15 (Prospec cat …); experiment: SPR (Biacore 3000), human IL-15 amine-coupled to the chip, antibody injected, 1:1 Langmuir fit
Method: Human IL-15 (Prospec cat no. CYT230) was immobilized onto a CMS chip (GE Healthcare) using standard amine coupling, and antibodies injected at various concentrations in 120 μl phosphate buffer saline with a flow rate of […]. Binding kinetics were analyzed on a Biacore 3000 apparatus (GE Healthcare) with a 300 seconds dissociation period. Reference signal and 0 nM antibody concentration signal were substracted and data fitted using a 1:1 (Langmuir) binding model.

[12] = molecular target: T4, human IL-15 (preparation not stated); experiment: ELISA
[13] = molecular target: T4, human IL-15 (preparation not stated); experiment: ELISA; the weaker binders of the comparison

T1 sequence (P40933 other isoform, or with tags, fused parts or gaps): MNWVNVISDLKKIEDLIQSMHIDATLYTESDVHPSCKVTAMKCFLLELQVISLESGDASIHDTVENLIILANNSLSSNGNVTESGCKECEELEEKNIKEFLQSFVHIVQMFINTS

B1: huB-E29-1 (antibody, human IgG1, kappa)
heavy: not shown
light: DVVMTQSPLSLPVTLGQPASISCRSSQSIVDITGNTYLEWYQQRPGQSPRLLIYKVFNRFSGVPDRFSGSGSGTDFTLKISRVEAEDVGVYYCFQDSFVPYTFGQGTKLEIKRTVAAPSVFIFPPSDEQLKSGTASVVCLLNNFYPREAKVQWKVDNALQSGNSQESVTEQDSKDSTYSLSSTLTLSKADYEKHKVYACEVTHQGLSSPVTKSFNRGEC
notes: Humanized B-E29 variant; human IgG1 (G1m3) / kappa (Km3), produced in CHO cells; also called huVH1/huVL1; hVH1:hVK1
EC50 [1]: 1.33 nM | EC50 (read off the curve) [2]: ~0.2 µg/mL | EC50 [3]: 0.487 nM

B2: huB-E29-2 (antibody, human IgG1, kappa)
heavy: not shown
light: DVVMTQSPLSLPVTLGQPASISCRSSQSIVDITGNTYLEWYQQRPGQSPRLLIYKVFNRFSGVPDRFSGSGSGTDFTLKISRVEAEDVGVYYCFQDSFVPYTFGQGTKLEIKRTVAAPSVFIFPPSDEQLKSGTASVVCLLNNFYPREAKVQWKVDNALQSGNSQESVTEQDSKDSTYSLSSTLTLSKADYEKHKVYACEVTHQGLSSPVTKSFNRGEC
notes: Humanized B-E29 variant; human IgG1 (G1m3) / kappa (Km3), produced in CHO cells; also called huVH2/huVL1
IC50 in M07e cells for IL-15 trans presentation [4]: 0.37 nM | half-maximal inhibitory concentration (IC50) of IL-15-induced prevention of apoptosis, type II RCD primary IEL cell line HAM RAC [5]: 2.36 nM | binding result [6]: no binding (tested: 5 µg/ml) | EC50 [1]: 1.47 nM | IC50 in Kit 225 cells (nM), Human IL-15 [7]: 0.083 nM | IC50 in M-07e cells (nM), Human IL-15 [7]: 0.017 nM | IC50 in Kit 225 cells (nM), Macaque Monkey IL-15 [8]: 0.112 nM | IC50 in M-07e cells (nM), Macaque Monkey IL-15 [8]: 0.23 nM | binding result [9]: no binding (tested: log 3.7 (about 5000 ng/mL)) | binding result [10]: no binding (tested: log 3.7 (about 5000 ng/mL)) | EC50 [3]: 0.34 nM | Kd [11]: 0.0094 nM | koff [11]: 1.07e-05 s⁻¹ | kon [11]: 1.15e+06 M⁻¹ s⁻¹

B3: 146B7 (comparative antibody 2) (antibody, V domains shown)
VH: EVQLVQSGAEVKKPGESLKISCKVSGYFFTTYWIGWVRQMPGKGLEYMGIIYPGDSDTRYSPSFQGQVTISADKSISTAYLQWSSLKASDTAMYYCARGGNWNCFDYWGQGTLVTVSS
VL: EIVLTQSPGTLSLSPGERATLSCRASQSVSSSYLAWYQQKPGQAPRLLIYGASRRATGIPDRFSGSGSGTDFTLTISRLEPEDFAVYYCQRYGSSHTFGQGTKLEIS
notes: Fully human antibody of the prior art (WO 03/017935), 'produced in the same expression system'; also called AMG 714; HuMaxIL-15
IC50 in M07e cells for IL-15 trans presentation [4]: 0.63 nM | EC50 [1]: 8.41 nM | IC50 in Kit 225 cells (nM), Human IL-15 [7]: 3.7 nM | IC50 in M-07e cells (nM), Human IL-15 [7]: 3.2 nM | EC50 (read off the curve) [2]: ~0.8 µg/mL | EC50 [3]: 0.733 nM | Kd [11]: 0.0367 nM | koff [11]: 5.26e-05 s⁻¹ | kon [11]: 1.44e+06 M⁻¹ s⁻¹

B4: cVH1:hVK1 (antibody, human IgG1, kappa, V domains shown)
VH: EVRLMASGGGLVKPGGSLKLSCAASEFTFSNYAMSWVRQTPEKRLEWVATISRGGDYTYYPDSVKGRFTISRDNAKNTLYLQMSSLRSEDTALYYCARRVSMITGGWAMDYWGQGTSVTVSS
VL: DVVMTQSPLSLPVTLGQPASISCRSSQSIVDITGNTYLEWYQQRPGQSPRLLIYKVFNRFSGVPDRFSGSGSGTDFTLKISRVEAEDVGVYYCFQDSFVPYTFGQGTKLEIKR
notes: Human IgG1 (G1m3) / kappa (Km3)
binding result [12]: binds

B5: hVH1:cVK1 (antibody, human IgG1, kappa, V domains shown)
VH: EVRLMASGGGLVQPGGSLRLSCAASEFTFSNYAMSWVRQAPGKGLEWVATISRGGDYTYYPDSVKGRFTISRDNSKNTLYLQMNSLRAEDTAVYYCARRVSMITGGWAMDYWGQGTLVTVSS
VL: DVLMTQTPLSLPVSLGDQASISCRSSQSIVDITGNTYLEWYLQKPGQSPKLLIYKVFNRFSGVPDRFSGSGSGTDFTLKISRVEAEDLGLYYCFQDSFVPYTFGGGTKLEIKR
notes: as for B4
binding result [12]: binds

B6: hVH1:hVK2 (antibody, human IgG1, kappa, V domains shown)
VH: EVRLMASGGGLVQPGGSLRLSCAASEFTFSNYAMSWVRQAPGKGLEWVATISRGGDYTYYPDSVKGRFTISRDNSKNTLYLQMNSLRAEDTAVYYCARRVSMITGGWAMDYWGQGTLVTVSS
VL: EVVMTQSPATLSLSPGERATLSCRSSQSIVDITGNTYLEWYQQKPGQAPRLLIYKVFNRFSGIPARFSGSGSGTDFTLTISSLEPEDFAVYYCFQDSFVPYTFGQGTKLEIKR
notes: as for B4
binding result [13]: binds

B7: cVH1:hVK2 (antibody, human IgG1, kappa, V domains shown)
VH: EVRLMASGGGLVKPGGSLKLSCAASEFTFSNYAMSWVRQTPEKRLEWVATISRGGDYTYYPDSVKGRFTISRDNAKNTLYLQMSSLRSEDTALYYCARRVSMITGGWAMDYWGQGTSVTVSS
VL: EVVMTQSPATLSLSPGERATLSCRSSQSIVDITGNTYLEWYQQKPGQAPRLLIYKVFNRFSGIPARFSGSGSGTDFTLTISSLEPEDFAVYYCFQDSFVPYTFGQGTKLEIKR
notes: as for B4
binding result [13]: binds

Reference: patent US20170137511A1 (CALYPSO BIOTECH, published 2017)
